The record followed here is publication PMC10550955.

In one test the target is β-cas. In words: SPR; homotypic: protein immobilised on CM5 or CM3 chip (~800-1000 RU), the same protein injected at increasing concentrations; BIAcore T200; 20 mM sodium phosphate buffer, pH 7.4; two-state model, one-state model for α-Syn and Chymo. A general note: Surface plasmon resonance follows binding to a sensor surface in real time, without labels.
A further test concerns the target γ-globulin. Described as above.

Bounds are passed on as bounds.

Regarding β-cas (natural protein), in the test with β-cas, the dissociation constant Kd was less than 500 nM.
γ-globulin (natural protein): the dissociation constant Kd in the test with γ-globulin was less than 500 nM.

As usually defined, the Kd is a measure of binding affinity in units of concentration.
